Drawing on patent US20120213794A1 (published 2012), this text covers IC50 for 5 molecules.

This assay has as its target human PCSK9 (proprotein convertase subtilisin-kexin type 9), wild type (UniProt Q8NBP7 31-692). In words: TR-FRET PCSK9-LDLR interaction inhibition.

Where a chain is given by its changes, count along the chain named.

Chain of human PCSK9 (proprotein convertase subtilisin-kexin type 9), wild type (Q8NBP7 31-692): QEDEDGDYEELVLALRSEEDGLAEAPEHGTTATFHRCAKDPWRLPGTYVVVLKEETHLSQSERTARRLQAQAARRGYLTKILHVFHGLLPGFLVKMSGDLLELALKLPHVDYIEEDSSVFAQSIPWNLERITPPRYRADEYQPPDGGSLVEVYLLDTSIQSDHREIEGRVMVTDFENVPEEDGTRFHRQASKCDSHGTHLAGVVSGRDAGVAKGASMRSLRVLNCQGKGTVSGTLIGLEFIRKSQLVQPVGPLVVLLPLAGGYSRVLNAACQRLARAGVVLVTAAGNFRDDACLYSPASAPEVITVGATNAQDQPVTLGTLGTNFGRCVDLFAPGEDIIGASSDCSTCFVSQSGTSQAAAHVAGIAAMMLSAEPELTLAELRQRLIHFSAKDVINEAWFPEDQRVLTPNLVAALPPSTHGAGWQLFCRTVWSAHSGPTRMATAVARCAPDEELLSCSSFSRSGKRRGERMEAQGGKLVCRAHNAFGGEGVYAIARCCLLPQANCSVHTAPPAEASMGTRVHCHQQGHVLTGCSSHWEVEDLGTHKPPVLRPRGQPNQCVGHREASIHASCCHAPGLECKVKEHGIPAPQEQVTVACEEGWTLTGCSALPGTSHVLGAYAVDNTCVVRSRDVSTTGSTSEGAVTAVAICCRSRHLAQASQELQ

B1: AX211 IgG2 (antibody, V domains shown)
VH: QVQLLESGGGLVQPGGSLRLSCKASGYTFSRQGFTWVRQAPGKGLEWIGWIDPGNGGTRYNEKFKGKATISRDNSKNTLYLQMNSLRAEDTAVYYCARYRVGYSLDYWGQGTLVTVSS
VL: EIVLTQSPATLSLSPGERATITCRASQYVGSYLNWYQQKPGQAPRLLIYDASNRATGIPARFSGSGSGTDFTLTISSLEPEDFAVYYCQVWDSSPPVVFGGGTKVEIK
In turn, B1 gave an IC50 of 4.8 nM. This lies in the single-digit nanomolar range.

B2: AX212 IgG2 (antibody, V domains shown)
VH: B1 VH with R31S, Q32Y, G33S, T35S, W50Y, N55S, R59K, E62Q, K65Q, Y99Q
VL: B1 VL
Consider B2, for which the IC50 was 3.9 nM.

B3: AX210 IgG2 (antibody, V domains shown)
VH: B1 VH with R31S, Q32Y, G33S, F34I, T35Y, E62Q, K65Q, G66S, Y99A
VL: B1 VL
In the case of B3, the IC50 was 4.9 nM.

B4: AX213 IgG2 (antibody, V domains shown)
VH: B1 VH with Q1E, Q32Y, F34I, T35N, W50R, Y99A, R100N, V101D, L105F
VL: EIVLTQSPATLSLSPGERATITCRASQYVGSYLNWYQQKPGQAPRLLIYDASNRATGIPARFSGSGSGTDFTLTISSLEPEDFAVYYCQVWDSSPPVVFGGGTKVEIKR
With B4, the IC50 amounted to 4.9 nM.

B5: AX114 IgG2 (antibody, V domains shown)
VH: EVQLLESGGGLVQPGGSLRLSCKASGYTFSSYGMYWVRQAPGKGLEWIGWIDPGSGGTKYNEKFKGKATISRDNSKNTLYLQMNSLRAEDTAVYYCARERYGYYFDYWGQGTLVTVSS
VL: B1 VL with S31T, V98A
In the case of B5, the midpoint of inhibition, the IC50, lay at 5.9 nM.

Broadly, the IC50 is the point on the concentration scale where inhibition reaches its midpoint. Low values mean greater potency in that assay, high ones weaker potency in that assay.
